Numbering of substitutions follows the chain as printed. Names and notes keep the numbering of the source.
Columns and labels:
[1] = molecular target: T1, human interleukin 12 (hIL-12), p70 heterodimer of p35 and p40 (human, UniProt P29459 23-219; P29460 23-328); assay: cell-based or functional assay
T1 sequence (looked up) 1: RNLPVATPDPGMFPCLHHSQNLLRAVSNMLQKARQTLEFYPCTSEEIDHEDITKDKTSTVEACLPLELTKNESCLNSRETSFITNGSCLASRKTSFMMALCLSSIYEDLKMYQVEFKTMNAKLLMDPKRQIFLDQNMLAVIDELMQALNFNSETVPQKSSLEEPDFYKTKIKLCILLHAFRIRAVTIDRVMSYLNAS
T1 sequence (looked up) 2: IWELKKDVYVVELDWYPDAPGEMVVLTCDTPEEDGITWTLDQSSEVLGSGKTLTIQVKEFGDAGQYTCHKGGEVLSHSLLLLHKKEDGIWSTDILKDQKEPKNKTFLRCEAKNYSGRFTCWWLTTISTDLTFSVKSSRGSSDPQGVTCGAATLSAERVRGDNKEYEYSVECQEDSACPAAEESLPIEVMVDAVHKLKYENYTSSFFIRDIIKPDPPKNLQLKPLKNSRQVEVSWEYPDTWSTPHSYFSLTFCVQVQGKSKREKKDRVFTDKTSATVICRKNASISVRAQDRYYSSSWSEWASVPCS

[2] = molecular target: T1, human interleukin 12 (hIL-12), p70 …; assay: RB assay: inhibition of IL-12 binding to its receptor
[3] = molecular target: T1, human interleukin 12 (hIL-12), p70 …; assay: koff, Table 2 (surface plasmon resonance per text)
[4] = molecular target: T1, human interleukin 12 (hIL-12), p70 …; assay: cell-based or functional assay; remark: listed apart in the source

B1: Y61-L50Y (antibody, V domains shown)
VH: QVQLVQSGGGVVQPGRSLRLSCAASGFTFSSYGMHWVRQAPGKGLEWVAFIRYDGSNKYYADSVKGRFTISRDNSKNTLYLQMKSLRAEDTAVYYCKTHGSHDNWGQGTMVTVSS
VL: SYVLTQPPSVSGTPGQRVTISCSGGRSNIGSNTVKWYQQLPGTAPKLLIYYNDQRPSGVPDRFSGSKSGTSASLAITGVQAEDEADYYCQSYDRGTHPALLFGTGTKVTVLG
[1]
  IFN gamma IC50: 0.02 nM
[2]
  IC50: 0.02 nM

B2: Y61-L50Y* IgG (antibody, V domains shown)
VH: B1 VH
VL: B1 VL
notes: IgG
[1]
  IFN gamma IC50: 0.03 nM
  PHA assay IC50: 0.02 nM
[3]
  koff: 6.98e-05 s⁻¹

B3: Y61-L94Y IgG (antibody, V domains shown)
VH: B1 VH
VL: B1 VL with Y51G, G95Y
notes: IgG
[1]
  IFN gamma IC50: 0.04 nM
  PHA assay IC50: 0.05 nM
[3]
  koff: 0.000127 s⁻¹
[2]
  IC50: 0.06 nM

B4: Y-61-L50Y-H31E**gG (antibody, V domains shown)
VH: B1 VH with S31E
VL: B1 VL
notes: also called Y61-L50Y-H31E IgG
[1]
  IFN gamma IC50: 0.02 nM
  PHA assay IC50: 0.06 nM
[3]
  koff: 2.99e-05 s⁻¹

B5: 149-7 (antibody, V domains shown)
VH: TTHGSHDNWGQG
VL: QSYDRDFTGSRV
[4]
  PHA assay IC50 (M) p70:p40 1:0: 3.5e-09 M
  PHA assay IC50 (M) p70:p40 1:20: 2.5e-09 M
  PHA assay IC50 (M) p70:p40 1:50: 4e-09 M

From patent US20140079714A1 (published 2014)
